Assay results published in patent US12605469B2, “Tumor specific antibody conjugates and uses therefor” (The University of North Carolina at Charlotte, priority 2019, dated 2026).

Target: T1, human MUC1, tumor-associated form (tMUC), on tumor cells and tumor tissue (human, UniProt P15941 24-1255, tumor-associated (aberrant) glycosylation, not specified further)
T1 construct: also called tMUC1; tumor-associated glycosylated MUC1
Assay: fluorescence microscopy of CAR T cells co-incubated with HPAFII cells

T1 sequence (P15941 other isoform, or with tags, fused parts or gaps limits assumed): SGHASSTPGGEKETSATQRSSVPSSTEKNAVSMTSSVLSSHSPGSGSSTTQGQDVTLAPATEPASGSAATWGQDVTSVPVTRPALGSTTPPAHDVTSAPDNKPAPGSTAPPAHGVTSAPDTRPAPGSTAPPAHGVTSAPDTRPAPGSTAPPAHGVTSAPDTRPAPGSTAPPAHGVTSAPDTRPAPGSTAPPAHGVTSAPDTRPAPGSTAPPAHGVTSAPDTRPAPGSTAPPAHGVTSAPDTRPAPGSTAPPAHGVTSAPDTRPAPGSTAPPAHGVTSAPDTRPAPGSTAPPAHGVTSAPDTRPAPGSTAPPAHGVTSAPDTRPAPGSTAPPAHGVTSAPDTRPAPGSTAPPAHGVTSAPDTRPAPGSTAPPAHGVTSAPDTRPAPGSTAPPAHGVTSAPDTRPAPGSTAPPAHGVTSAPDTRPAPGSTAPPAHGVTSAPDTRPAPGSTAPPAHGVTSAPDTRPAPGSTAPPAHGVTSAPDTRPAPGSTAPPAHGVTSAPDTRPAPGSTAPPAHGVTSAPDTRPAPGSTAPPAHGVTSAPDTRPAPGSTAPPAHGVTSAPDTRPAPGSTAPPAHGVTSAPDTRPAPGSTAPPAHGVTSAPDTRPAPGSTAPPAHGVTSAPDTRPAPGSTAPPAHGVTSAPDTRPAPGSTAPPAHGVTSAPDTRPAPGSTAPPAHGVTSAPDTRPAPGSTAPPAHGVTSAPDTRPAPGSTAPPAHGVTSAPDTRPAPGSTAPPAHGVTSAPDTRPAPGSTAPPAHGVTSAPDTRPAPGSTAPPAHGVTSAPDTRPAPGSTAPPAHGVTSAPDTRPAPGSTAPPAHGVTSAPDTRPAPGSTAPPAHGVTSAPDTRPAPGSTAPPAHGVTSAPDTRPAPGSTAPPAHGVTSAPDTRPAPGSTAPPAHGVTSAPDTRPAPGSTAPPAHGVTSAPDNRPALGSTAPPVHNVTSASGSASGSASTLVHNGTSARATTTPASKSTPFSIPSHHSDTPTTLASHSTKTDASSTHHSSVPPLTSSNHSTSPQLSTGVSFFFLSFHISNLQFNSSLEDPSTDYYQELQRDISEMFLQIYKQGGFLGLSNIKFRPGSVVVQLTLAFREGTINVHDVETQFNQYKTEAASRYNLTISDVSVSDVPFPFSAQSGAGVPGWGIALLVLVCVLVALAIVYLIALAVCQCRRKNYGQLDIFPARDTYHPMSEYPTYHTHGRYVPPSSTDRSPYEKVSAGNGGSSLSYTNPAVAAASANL

B1: TAB-28z-mKATE chimeric antigen receptor (2nd generation), on T cells (receptor)
chain: EVQLQQSGGERATPGASVKMSCKTSGYTFTNYWMHWVKQRPGQGLEWIGYINPSSGYTQYNQKFKDKATLTADKSSSTAYIQLSSLTSEDSAVYYCSTYYGDYLFPYWGQGTLVTVSAGGGGSGGGGSGGGGSDVLMTQTPLSLPVSLGDQASISCRSSQDIVYGNGNTYLEWYLQKPGQSPKLLIYKVSNRFSGVPDRFSGSGSGTDFTLKISRVEAEDLGVYYCFQGSHVPYTFGGGTKLEIKRAAAIEVEQKLISEEDLLDNEKSNGTIIHVKGKHLCPSPLFPGPSKPFWVLVVVGGVLACYSLLVTVAFIIFWVRSKRSRLLHSDYMNMTPRRPGPTRKHYQPYAPPRDFAAYRSRVKFSRSADAPAYQQGQNQLYNELNLGRREEYDVLDKRRGRDPEMGGKPRRKNPQEGLYNELQKDKMAEAYSEIGMKGERRRGKGHDGLYQGLSTATKDTYDALHMQALPPRARGAAAGAGGAGRMVSELIKENMHMKLYMEGTVNNHHFKCTSEGEGKPYEGTQTMRIKAVEGGPLPFAFDILATSFMYGSKTFINHTQGIPDFFKQSFPEGFTWERVTTYEDGGVLTATQDTSLQDGCLIYNVKIRGVNFPSNGPVMQKKTLGWEASTETLYPADGGLEGRADMALKLVGGGHLICNLKTTYRSKKPAKNLKMPGVYYVDRRLERIKEADKETYVEQHEVAVARYCDLPSKLGHR
notes: Expressed on the surface of T cells or Jurkat cells; also called CAR-mKATE; CAR-mKate fusion protein
binding result: binds
